Measured values: patent US20250213710A1 (PHENOMIC AI, published 2025)
One block for each molecule: values may come before it.

Key:
[1] = biological target: integrin αV on ovarian cancer cells (SKOV3) (human) (UniProt P06756); assay: cell-based or functional assay
[2] = biological target: integrin β1 on ovarian cancer cells (SKOV3) (human) (UniProt P05556); assay: cell-based or functional assay
[3] = biological target: recombinant human CTHRC1 (Collagen Triple Helix Repeat Containing 1) (human) (UniProt Q96CG8); assay: cell-based or functional assay
[4] = biological target: recombinant human CTHRC1 (Collagen Triple Helix Repeat Containing 1) (human) (UniProt Q96CG8); assay: binding EC50 on huCTHRC1 (assay not named)
rat CTHRC1 [5] = biological target: T1, rat CTHRC1 (rat, UniProt Q8CG08 33-245, limits assumed); assay: assay not named (Table 2 EC50 columns show n/a)
mouse CTHRC1 [6] = biological target: T2, mouse CTHRC1 (mouse, UniProt Q9D1D6 33-245, limits assumed); assay: assay not named (Table 2 EC50 columns show n/a)
T2 construct: also called muCTHRC1

rat CTHRC1 [7] = biological target: T1, rat CTHRC1; assay: binding EC50 on rat CTHRC1 (assay not named)
mouse CTHRC1 [8] = biological target: T2, mouse CTHRC1; assay: binding EC50 on muCTHRC1 (assay not named)

integrin αV on ovarian cancer cells (SKOV3) (human), sequence (P06756 31-1048): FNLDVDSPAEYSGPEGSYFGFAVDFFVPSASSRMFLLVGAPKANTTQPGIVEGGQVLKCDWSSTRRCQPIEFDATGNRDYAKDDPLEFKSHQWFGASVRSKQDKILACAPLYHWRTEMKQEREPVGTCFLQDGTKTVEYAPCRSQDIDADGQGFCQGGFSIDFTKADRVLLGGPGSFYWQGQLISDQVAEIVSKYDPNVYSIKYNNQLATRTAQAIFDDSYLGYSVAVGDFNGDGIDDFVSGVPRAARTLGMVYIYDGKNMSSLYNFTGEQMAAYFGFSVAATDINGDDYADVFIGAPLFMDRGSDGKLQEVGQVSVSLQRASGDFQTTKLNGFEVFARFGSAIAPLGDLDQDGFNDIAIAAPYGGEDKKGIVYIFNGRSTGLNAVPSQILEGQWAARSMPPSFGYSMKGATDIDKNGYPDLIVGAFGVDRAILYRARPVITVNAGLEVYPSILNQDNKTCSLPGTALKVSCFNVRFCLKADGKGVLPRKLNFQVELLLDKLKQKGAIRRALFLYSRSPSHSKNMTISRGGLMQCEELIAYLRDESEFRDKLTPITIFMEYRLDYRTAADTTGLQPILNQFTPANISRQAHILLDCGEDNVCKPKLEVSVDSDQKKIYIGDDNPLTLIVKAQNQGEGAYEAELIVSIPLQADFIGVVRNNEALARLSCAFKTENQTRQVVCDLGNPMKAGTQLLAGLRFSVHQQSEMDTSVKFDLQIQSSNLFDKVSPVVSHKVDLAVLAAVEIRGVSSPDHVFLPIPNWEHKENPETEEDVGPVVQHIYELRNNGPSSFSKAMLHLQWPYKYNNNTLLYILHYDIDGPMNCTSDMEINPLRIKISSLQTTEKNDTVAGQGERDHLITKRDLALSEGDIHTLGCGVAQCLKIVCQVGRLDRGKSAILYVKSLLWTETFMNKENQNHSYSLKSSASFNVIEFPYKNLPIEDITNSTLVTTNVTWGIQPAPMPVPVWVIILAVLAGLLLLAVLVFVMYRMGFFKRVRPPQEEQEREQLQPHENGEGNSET
T2 sequence (Q9D1D6 33-245 limits assumed): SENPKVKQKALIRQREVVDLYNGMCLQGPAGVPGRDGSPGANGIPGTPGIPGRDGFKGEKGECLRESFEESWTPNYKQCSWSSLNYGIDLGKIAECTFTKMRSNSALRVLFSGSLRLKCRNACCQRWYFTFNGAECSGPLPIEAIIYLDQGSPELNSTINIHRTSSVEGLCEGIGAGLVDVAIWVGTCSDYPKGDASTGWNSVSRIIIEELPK
T1 sequence (Q8CG08 33-245 limits assumed): as the sequence (Q9D1D6 33-245 limits assumed) above
recombinant human CTHRC1 (Collagen Triple Helix Repeat Containing 1) (human), sequence (Q96CG8 31-243): as the sequence (Q9D1D6 33-245 limits assumed) above, with N3I, V6G, L11Q, I12L, L155M counted along it
integrin β1 on ovarian cancer cells (SKOV3) (human), sequence (P05556 21-798): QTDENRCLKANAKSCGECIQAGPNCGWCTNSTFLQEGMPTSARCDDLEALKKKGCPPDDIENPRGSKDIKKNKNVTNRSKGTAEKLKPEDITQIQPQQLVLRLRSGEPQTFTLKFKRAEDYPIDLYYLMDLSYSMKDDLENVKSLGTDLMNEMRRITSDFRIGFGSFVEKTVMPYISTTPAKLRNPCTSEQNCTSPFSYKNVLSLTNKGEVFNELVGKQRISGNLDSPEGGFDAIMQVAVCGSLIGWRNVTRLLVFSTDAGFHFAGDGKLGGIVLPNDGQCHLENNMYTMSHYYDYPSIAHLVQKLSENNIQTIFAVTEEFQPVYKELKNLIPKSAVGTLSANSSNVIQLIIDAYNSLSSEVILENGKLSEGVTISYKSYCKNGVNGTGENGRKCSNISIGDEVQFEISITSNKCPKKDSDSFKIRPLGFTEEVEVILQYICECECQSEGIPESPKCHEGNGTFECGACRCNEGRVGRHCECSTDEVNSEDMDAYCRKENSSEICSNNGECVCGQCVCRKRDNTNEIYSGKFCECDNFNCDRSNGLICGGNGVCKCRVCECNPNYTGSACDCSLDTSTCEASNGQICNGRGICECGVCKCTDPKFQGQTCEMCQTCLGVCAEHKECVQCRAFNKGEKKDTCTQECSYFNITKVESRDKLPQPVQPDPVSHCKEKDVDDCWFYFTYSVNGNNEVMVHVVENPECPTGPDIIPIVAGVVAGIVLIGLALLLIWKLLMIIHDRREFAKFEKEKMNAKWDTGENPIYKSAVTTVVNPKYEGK

B2: CTHRC1S-M5 (AB987) (antibody, V domains shown)
VH: EVQLVESGGGLVTPGGSLRLSCAASGFTFSTYSMNWVRQAPGKGLEWVSSISGSSGHIYYADSVRGRFTISRDNAKNSLYLQMNSLRAEDTAVYYCASMHYYYYLDVWGKGTTVTVSS
VL: QAVVTQESALTTSPGETVTLTCRSSTGTVTTSNYVTWVQEKPDHLFTGLIGATNNRAPGVPARFSGSLIGDKAALTITGAQTEDEAIYFCALWYSNHWVFGGGTKLTVL
notes: Monoclonal antibody purified from a hybridoma of a humanized transgenic mouse immunized with rhCTHRC1; also called CTHRCIS-M5; anti-CTHRC1 clone M5
blocking of cell adhesion to CTHRC1 (cell adhesion assay) [3]: > 50%
EC50 (rat CTHRC1 [7]): 1730 pM
EC50 [4]: 1850 pM
EC50 (mouse CTHRC1 [8]): 260 pM

B3: CTHRC1S-M14 (AB991) (antibody, V domains shown)
VH: EVQVVESGGGLVQPGGSLRLSCAASRFTFSNYWMSWVRQAPGRGLEWVANIKQDGSEKYYVDSVKGRFTISRDNAKNSLYLQMNSLRAEDTAVYYCAREGGYCSDTRCFFYMDVWGKGTTVTVSS
VL: DIQMTQSPSTLSASVGDRVTITCRASQSIISWLAWYQQKPGKAPKLLIYKASSLEGGVPSRFSGSGSGTDFTLTISSLQPDDFATYYCQQYNSYSRTFGQGTTVEIK
notes: Monoclonal antibody purified from a hybridoma of a humanized transgenic mouse; also called anti-CTHRC1 clone M14
EC50 (rat CTHRC1 [7]): 50 pM
EC50 [4]: 50 pM
EC50 (mouse CTHRC1 [8]): 940 pM

The next lines start with the values.

cell adhesion of ovarian cancer cells to CTHRC1 after 1 hour with 100 nM integrin αV antibody [1]: 2 fold
cell adhesion of ovarian cancer cells to CTHRC1 after 1 hour with a combination of integrin β1 antibody and integrin αV antibody [1]: 2 fold
decrease in cell adhesion of ovarian cancer cells to CTHRC1 after 1 hour with 100 nM integrin αV antibody [1]: 40%
cell adhesion of ovarian cancer cells to CTHRC1 after 1 hour with 100 nM integrin β1 antibody [2]: 2 fold
cell adhesion of ovarian cancer cells to CTHRC1 after 1 hour with a combination of integrin β1 antibody and integrin αV antibody [2]: 2 fold
decrease in cell adhesion of ovarian cancer cells to CTHRC1 after 1 hour with 100 nM integrin β1 antibody [2]: 75%
Molecule: recombinant human CTHRC1 (Collagen Triple Helix Repeat Containing 1) (from UniProt Q96CG8 31-243)

blocking of cell adhesion to CTHRC1 (cell adhesion assay) [3]: > 50%
EC50 [4]: 9760 pM
binding result (rat CTHRC1 [5]): no binding
binding result (mouse CTHRC1 [6]): no binding
B1: CTHRC1S-M11 (AB989) (antibody, V domains shown)
VH: QVTLRESGPALVKPTQTLTLTCTFSGFSLSTNVMCVSWIRQPPGKALEWLALIDWDDDKYYSTSLKTRLTISKDTSKNQVVLTMTNMDPVDTATYYCARTGITGTHYYYYYMDVWGKGTTVTVSS
VL: AIQMTQSPSSLSASVGDRVTITCRASQGIRNDLGWYQQKPGKAPKLLIYAASSLQSGVPSRFSGSGFGTDFTLTISSLQPEDFATYYCLQDYNYPWTFGQGTKVEIK
notes: Monoclonal antibody purified from a hybridoma of a humanized transgenic mouse; also called CTHRCIS-M11
